From patent US20220017612A1 (TILOS THERAPEUTICS, published 2022) come the findings set out here.

Positions count from the first letter of the chain named.

B1: 22F9_H5L0 (antibody, human IgG1, kappa)
heavy: not shown
light: DIQLTQSPSSLSASVGDRVTITCRASKSVSTSGYSYMHWYQQKPGKAPKLLIYLASNLESGVPSRFSGSGSGTDFTLTISSLQPEDFATYYCQHSRELPYTFGGGTKVEIKRTVAAPSVFIFPPSDEQLKSGTASVVCLLNNFYPREAKVQWKVDNALQSGNSQESVTEQDSKDSTYSLSSTLTLSKADYEKHKVYACEVTHQGLSSPVTKSFNRGEC
B2: 22F9_H4L0 (antibody, human IgG1, kappa)
heavy: not shown
light: B1 light
B3: 22F9_H5L1 (antibody, human IgG1, kappa)
heavy: not shown
light: B1 light with A47P, D74H
B4: 22F9_H4L2 (antibody, human IgG1, kappa)
heavy: not shown
light: B1 light with A13V, V19A, A47P, D74H, L82V, V108L
B5: 22F9_H5L2 (antibody, human IgG1, kappa)
heavy: not shown
light: B1 light with A13V, V19A, A47P, D74H, L82V, V108L
B6: 22F9_H3L0 (antibody, human IgG1, kappa, V domains shown)
VH: QVQLVQSGAEVKKPGASVKVSCKASGYTFTSYWMHWVRQAPGQGLEWIGMIHPNSGSTNYNEKFKSRVTLTVDKSSSTAYMELSSLRSEDTAVYYCAYYDYDGFFDVWGQGTLVTVSS
VL: DIQLTQSPSSLSASVGDRVTITCRASKSVSTSGYSYMHWYQQKPGKAPKLLIYLASNLESGVPSRFSGSGSGTDFTLTISSLQPEDFATYYCQHSRELPYTFGGGTKVEIKR
B7: 28G11_mIgG2a (antibody, V domains shown)
VH: EVKLVESGGGLVQPGGSLSLSCAASGFTFTDYYMSWVRQPPGKALEWLGFIRNKPNGYTTEYSASVKGRFTISRDNSQSILYLQMNVLRAEDSATYYCARYTGGGYFDYWGQGTTLTVSS
VL: DIQMTQTTSSLSASLGDRLTISCRASQDISNYLNWYQQKPDGTVKLLIYYTSRLHSGVPSRFSGSGSGTDYSLTISNLEQADIATYFCQQGDTLPWTFGGGTKLEIK
B8: H0L0 (antibody, human IgG1, kappa, V domains shown)
VH: B6 VH with I48M, L70M, V72R, K74T, S76T, A79V, Y98R
VL: B6 VL
notes: also called 22F9_H0L0
B9: H0L1 (antibody, human IgG1, kappa, V domains shown)
VH: B6 VH with I48M, L70M, V72R, K74T, S76T, A79V, Y98R
VL: B6 VL with A47P, D74H
notes: also called 22F9_H0L1
B10: H0L2 (antibody, human IgG1, kappa, V domains shown)
VH: B6 VH with I48M, L70M, V72R, K74T, S76T, A79V, Y98R
VL: B6 VL with A13V, V19A, A47P, D74H, L82V, V108L
notes: also called 22F9_H0L2
B11: H1L2 (antibody, human IgG1, kappa, V domains shown)
VH: B6 VH with L70M, K74T, S76T, A79V
VL: B6 VL with A13V, V19A, A47P, D74H, L82V, V108L
notes: also called 22F9_H1L2
B12: 22F9_H2L1 (antibody, human IgG1, kappa, V domains shown)
VH: B6 VH with K74T, S76T
VL: B6 VL with A47P, D74H
B13: 22F9_H2L0 (antibody, human IgG1, kappa, V domains shown)
VH: B6 VH with K74T, S76T
VL: B6 VL
B14: 22F9_H3L1 (antibody, human IgG1, kappa, V domains shown)
VH: B6 VH
VL: B6 VL with A47P, D74H

T2 sequence (P01137 30-390): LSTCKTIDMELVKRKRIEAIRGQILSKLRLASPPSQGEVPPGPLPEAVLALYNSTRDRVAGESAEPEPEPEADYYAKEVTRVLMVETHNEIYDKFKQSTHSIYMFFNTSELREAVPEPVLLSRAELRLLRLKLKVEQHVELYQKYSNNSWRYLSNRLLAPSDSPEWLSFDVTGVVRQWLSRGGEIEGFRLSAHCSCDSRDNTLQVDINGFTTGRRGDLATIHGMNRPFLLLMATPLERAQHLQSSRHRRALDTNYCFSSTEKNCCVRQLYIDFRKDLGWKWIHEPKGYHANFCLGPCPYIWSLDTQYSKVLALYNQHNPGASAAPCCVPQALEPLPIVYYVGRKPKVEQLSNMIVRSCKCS

The target in the first assay is T1, fusion protein of a human IgG1 Fc domain and human LAP-TGFβ1 (human, UniProt P01137 30-390).
T1 construct: printed both as Fc-huB1 and LAP-TGFβ-Fc; also called Fc-huB1; Fc-human LAP
T1 sequence (P01137 30-390 limits assumed): as the sequence (P01137 30-390) above
Nature of the assay: BLI, antibody on tip, 1:1 model. On the procedure: (§1) Binding to human TGFβ1 of a subset of candidates was also tested by bio-layer interferometry (Octet). A streptavidin coated tip was equilibrated for 60 seconds in binding buffer (10 mM sodium phosphate, 150 mM sodium chloride, 1% bovine serum albumin, 0.05% sodium azide). The tip was then dipped in 10 μg/mL biotinylated antibody in binding buffer. After 15 seconds, the tip was washed in binding buffer for 60 seconds, and then dipped in 0-24 nM Fc-human LAP. Analyte association was measured for 5 minutes. The tip was transferred to binding buffer alone, and analyte dissociation was measured for 5 minutes. The association and dissociation data were fit to a 1:1 binding model.
With B1, binding was put at a Kd of 3.35 nM, the koff was determined as 0.0017 s⁻¹ and the kon is 510000 M⁻¹ s⁻¹.

As to B2, the Kd turned out to be 1.63 nM, the koff was determined as 0.00132 s⁻¹ and the kon was 810000 M⁻¹ s⁻¹.

The molecule B3 registered a Kd of 2.34 nM, a koff of 0.00122 s⁻¹ and a kon of 519000 M⁻¹ s⁻¹.

B4 had a Kd of 2.3 nM, a koff of 0.00137 s⁻¹ and a kon of 598000 M⁻¹ s⁻¹.

B5 had an equilibrium dissociation constant (Kd) of 3.91 nM, a koff of 0.00246 s⁻¹ and a kon of 629000 M⁻¹ s⁻¹.

The molecule B6 gave a Kd of 2.75 nM, a koff of 0.00214 s⁻¹ and a kon of 778000 M⁻¹ s⁻¹.

For another assay, the target named is murine LAP-TGFβ1 overexpressed on cells (mouse, UniProt P04202 30-390). Put plainly: cell-based or functional assay.
murine LAP-TGFβ1 overexpressed on cells, sequence (P04202 30-390): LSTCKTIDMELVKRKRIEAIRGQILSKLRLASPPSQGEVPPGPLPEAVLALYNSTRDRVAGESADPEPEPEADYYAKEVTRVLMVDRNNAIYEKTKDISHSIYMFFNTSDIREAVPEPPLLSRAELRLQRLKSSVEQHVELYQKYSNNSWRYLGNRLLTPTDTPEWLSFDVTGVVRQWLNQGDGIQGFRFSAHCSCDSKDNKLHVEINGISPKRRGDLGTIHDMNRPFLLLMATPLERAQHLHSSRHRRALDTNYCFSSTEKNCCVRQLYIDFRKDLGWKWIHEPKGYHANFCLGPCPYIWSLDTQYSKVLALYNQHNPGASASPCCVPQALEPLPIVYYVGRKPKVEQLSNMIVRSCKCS
B7: the “IC50 of inhibition of TGFβ1 activation” value amounted to 0.8 µg/mL.

A further assay concerns the target T2, human LAP-TGFβ1 overexpressed on cells (human, UniProt P01137 30-390). Put plainly: cell-based or functional assay.
With B7, the “IC50 of inhibition of TGFβ1 activation” value was 1.6 µg/mL.

In a further assay the target is T2, human LAP-TGFβ1 overexpressed on cells. Put plainly: flow cytometry; black bar HT1080-huB1, grey bar HT1080. On the procedure:
First, the ability of 22F9H0L0, HILO, H2L0, H3L0, H4L0, H5L0, H0L1, H1L1, H2L1, H3L1, H4L1, H5L1, H0L2, H1L2, H2L2, H3L3, H4L2, and H5L2 to bind to HT1080 cells overexpressing human TGFβ1 was tested by flow cytometry. HT1080 cells over-expressing human LAP-TGFβ1 were placed in a round-bottom 96-well plate at density of 40,000 cells/well. The cells were washed with FACS buffer (25 mM HEPES, 2 mM EDTA, 2% fetal bovine serum in Hank's Balanced Salt Solution). 50 μL of 1:200 diluted TruStain Human FcX (BioLegend) was added to each well, followed by 50 μL of 100 ng/μL of humanized 22F9 construct. The antibody was allowed to bind for 20 minutes. The cells were washed twice with FACS buffer. The cells were labeled for 15 minutes with Alexa647-anti Human IgG (Jackson Immunoresearch), washed twice with FACS buffer, and analyzed by flow cytometry.
With B8, the binding result was “no binding (tested: single dose, 50 µL of 100 ng/µL)”.

Consider B9, for which the binding result was “no binding (tested: single dose, 50 µL of 100 ng/µL)”.

For the molecule B10, the binding result is on record as “no binding (tested: single dose, 50 µL of 100 ng/µL)”.

Turning to B11, the binding result was “no binding (tested: single dose, 50 µL of 100 ng/µL)”.

As for B12, the binding result was “binds”.

Turning to B13, the binding result was “binds”.

As to B14, the binding result is given as “binds”.

A further assay has as its target T1, fusion protein of a human IgG1 Fc …. Nature of the assay: BLI, signal change on binding. On the procedure: as §1
With B1, the “Binding (nm)” value came out at 0.13 nm.

Regarding B2, the “Binding (nm)” value is 0.057 nm.

As for B3, the “Binding (nm)” value is 0.08 nm.

With B4, the “Binding (nm)” value turned out to be 0.07 nm.

For the molecule B5, the “Binding (nm)” value worked out at 0.06 nm.

On to B6, for which the “Binding (nm)” value amounted to 0.023 nm.
